Measurements taken from the supplement of paper PMC9112550, “Optimization of the antimicrobial peptide Bac7 by deep mutational scanning” (BMC Biology, 2022).

What follows are sequences tested on Escherichia coli TOP10 (assay: shrunken log2 fold change of peptide-encoding DNA abundance (4.5 h post-induction vs induction); higher = less antimicrobial activity (less host growth inhibition)). Details: time post-induction: 4.5 h; library: site-saturation at positions 5, 18, 19, 20.
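Note: peptides expressed intracellularly from a pBAD plasmid library in pooled LB shake-flask culture, induced with 0.3% L-arabinose, DNA abundance read by NGS, three biological replicates, DESeq2 with apeglm shrinkage.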

Row | Sequence | shrunken log2 fold change
1 | RRIRCRPPRLPRPRPRPQIPPRP | -0.126
2 | RRIRCRPPRLPRPRPRPQIRPRP | -0.332
3 | RRIRCRPPRLPRPRPRPQKDPRP | -0.202
4 | RRIRCRPPRLPRPRPRPQKPPRP | 0.0368
5 | RRIRCRPPRLPRPRPRPQMPPRP | -0.0931
6 | RRIRCRPPRLPRPRPRPQMRPRP | 0.611
7 | RRIRCRPPRLPRPRPRPQNMPRP | -0.78
8 | RRIRCRPPRLPRPRPRPQNRPRP | -0.111
9 | RRIRCRPPRLPRPRPRPQNYPRP | -0.485
10 | RRIRCRPPRLPRPRPRPQPHPRP | 0.067
11 | RRIRCRPPRLPRPRPRPQQYPRP | -0.709
12 | RRIRCRPPRLPRPRPRPQRDPRP | -0.304
13 | RRIRCRPPRLPRPRPRPQRQPRP | 0.0683
14 | RRIRCRPPRLPRPRPRPQRWPRP | 0.294
15 | RRIRCRPPRLPRPRPRPQSIPRP | -0.394
16 | RRIRCRPPRLPRPRPRPQSLPRP | 0.0939
17 | RRIRCRPPRLPRPRPRPQTDPRP | -0.00613
18 | RRIRCRPPRLPRPRPRPQTEPRP | 0.0248
19 | RRIRCRPPRLPRPRPRPQTGPRP | -0.144
20 | RRIRCRPPRLPRPRPRPQTIPRP | -0.516
21 | RRIRCRPPRLPRPRPRPQTKPRP | 0.146
22 | RRIRCRPPRLPRPRPRPQTPPRP | 0.48
23 | RRIRCRPPRLPRPRPRPQVPPRP | -0.106
24 | RRIRCRPPRLPRPRPRPQWFPRP | -0.106
25 | RRIRCRPPRLPRPRPRPQWIPRP | -0.692

Row | Sequence | shrunken log2 fold change
26 | RRIRCRPPRLPRPRPRPQWPPRP | 0.0205
27 | RRIRCRPPRLPRPRPRPQWQPRP | 0.0413
28 | RRIRCRPPRLPRPRPRPRAFPRP | -0.0361
29 | RRIRCRPPRLPRPRPRPRAYPRP | -0.35
30 | RRIRCRPPRLPRPRPRPRCGPRP | 0.191
31 | RRIRCRPPRLPRPRPRPREAPRP | 0.521
32 | RRIRCRPPRLPRPRPRPRFTPRP | 0.066
33 | RRIRCRPPRLPRPRPRPRGSPRP | 0.511
34 | RRIRCRPPRLPRPRPRPRHHPRP | -0.088
35 | RRIRCRPPRLPRPRPRPRHRPRP | -0.466
36 | RRIRCRPPRLPRPRPRPRIVPRP | 0.0193
37 | RRIRCRPPRLPRPRPRPRKTPRP | 0.103
38 | RRIRCRPPRLPRPRPRPRLAPRP | 0.559
39 | RRIRCRPPRLPRPRPRPRMTPRP | 0.296
40 | RRIRCRPPRLPRPRPRPRNCPRP | -0.288
41 | RRIRCRPPRLPRPRPRPRNRPRP | 0.239
42 | RRIRCRPPRLPRPRPRPRPFPRP | 0.176
43 | RRIRCRPPRLPRPRPRPRPSPRP | 0.695
44 | RRIRCRPPRLPRPRPRPRPYPRP | -0.0927
45 | RRIRCRPPRLPRPRPRPRSKPRP | 0.0908
46 | RRIRCRPPRLPRPRPRPRSWPRP | 0.417
47 | RRIRCRPPRLPRPRPRPRSYPRP | -0.233
48 | RRIRCRPPRLPRPRPRPRVKPRP | 0.196
49 | RRIRCRPPRLPRPRPRPRVPPRP | -0.0115
50 | RRIRCRPPRLPRPRPRPRWMPRP | 0.346

Row | Sequence | shrunken log2 fold change
51 | RRIRCRPPRLPRPRPRPRYKPRP | -0.141
52 | RRIRCRPPRLPRPRPRPSAPPRP | 0.0889
53 | RRIRCRPPRLPRPRPRPSCLPRP | -0.499
54 | RRIRCRPPRLPRPRPRPSCMPRP | -0.313
55 | RRIRCRPPRLPRPRPRPSDVPRP | 0.00436
56 | RRIRCRPPRLPRPRPRPSFEPRP | -0.508
57 | RRIRCRPPRLPRPRPRPSHSPRP | -0.392
58 | RRIRCRPPRLPRPRPRPSICPRP | -0.194
59 | RRIRCRPPRLPRPRPRPSIFPRP | -0.575
60 | RRIRCRPPRLPRPRPRPSMWPRP | -0.648
61 | RRIRCRPPRLPRPRPRPSPDPRP | 0.215
62 | RRIRCRPPRLPRPRPRPSPEPRP | 0.3
63 | RRIRCRPPRLPRPRPRPSQLPRP | -0.357
64 | RRIRCRPPRLPRPRPRPSRNPRP | 0.155
65 | RRIRCRPPRLPRPRPRPSRPPRP | 0.245
66 | RRIRCRPPRLPRPRPRPSRRPRP | -0.181
67 | RRIRCRPPRLPRPRPRPSTWPRP | -0.0554
68 | RRIRCRPPRLPRPRPRPTAIPRP | -0.273
69 | RRIRCRPPRLPRPRPRPTAVPRP | 0.393
70 | RRIRCRPPRLPRPRPRPTCSPRP | -0.157
71 | RRIRCRPPRLPRPRPRPTCYPRP | -0.154
72 | RRIRCRPPRLPRPRPRPTDGPRP | -0.116
73 | RRIRCRPPRLPRPRPRPTHYPRP | 0.513
74 | RRIRCRPPRLPRPRPRPTIHPRP | -0.883
75 | RRIRCRPPRLPRPRPRPTILPRP | -0.646

Row | Sequence | shrunken log2 fold change
76 | RRIRCRPPRLPRPRPRPTLCPRP | -0.0107
77 | RRIRCRPPRLPRPRPRPTMTPRP | 0.106
78 | RRIRCRPPRLPRPRPRPTNYPRP | 0.263
79 | RRIRCRPPRLPRPRPRPTPGPRP | 0.589
80 | RRIRCRPPRLPRPRPRPTPTPRP | 0.982
81 | RRIRCRPPRLPRPRPRPTQEPRP | 0.121
82 | RRIRCRPPRLPRPRPRPTRDPRP | 0.104
83 | RRIRCRPPRLPRPRPRPTRHPRP | 0.161
84 | RRIRCRPPRLPRPRPRPTSCPRP | -0.0641
85 | RRIRCRPPRLPRPRPRPTSKPRP | 0.921
86 | RRIRCRPPRLPRPRPRPTTWPRP | -0.125
87 | RRIRCRPPRLPRPRPRPTVAPRP | 0.0998
88 | RRIRCRPPRLPRPRPRPTWLPRP | -0.227
89 | RRIRCRPPRLPRPRPRPTWPPRP | 0.371
90 | RRIRCRPPRLPRPRPRPTYDPRP | -0.609
91 | RRIRCRPPRLPRPRPRPTYLPRP | -0.292
92 | RRIRCRPPRLPRPRPRPVAAPRP | 0.689
93 | RRIRCRPPRLPRPRPRPVADPRP | 0.181
94 | RRIRCRPPRLPRPRPRPVCSPRP | -0.0747
95 | RRIRCRPPRLPRPRPRPVDGPRP | 0.0228
96 | RRIRCRPPRLPRPRPRPVDRPRP | 0.0626
97 | RRIRCRPPRLPRPRPRPVEMPRP | 0.0203
98 | RRIRCRPPRLPRPRPRPVESPRP | -0.0217
99 | RRIRCRPPRLPRPRPRPVGCPRP | 0.204
100 | RRIRCRPPRLPRPRPRPVKDPRP | -0.305

Row | Sequence | shrunken log2 fold change
101 | RRIRCRPPRLPRPRPRPVKPPRP | 0.477
102 | RRIRCRPPRLPRPRPRPVMEPRP | -0.0475
103 | RRIRCRPPRLPRPRPRPVMFPRP | -0.154
104 | RRIRCRPPRLPRPRPRPVMRPRP | 0.16
105 | RRIRCRPPRLPRPRPRPVPPPRP | 0.474
106 | RRIRCRPPRLPRPRPRPVRAPRP | 0.486
107 | RRIRCRPPRLPRPRPRPVSSPRP | -0.0119
108 | RRIRCRPPRLPRPRPRPVTCPRP | -0.121
109 | RRIRCRPPRLPRPRPRPVTSPRP | -0.0245
110 | RRIRCRPPRLPRPRPRPVVCPRP | 0.113
111 | RRIRCRPPRLPRPRPRPWACPRP | -0.0929
112 | RRIRCRPPRLPRPRPRPWCFPRP | -0.712
113 | RRIRCRPPRLPRPRPRPWCLPRP | -0.339
114 | RRIRCRPPRLPRPRPRPWDNPRP | -0.291
115 | RRIRCRPPRLPRPRPRPWEFPRP | 0.0363
116 | RRIRCRPPRLPRPRPRPWEKPRP | 0.0651
117 | RRIRCRPPRLPRPRPRPWFDPRP | -0.496
118 | RRIRCRPPRLPRPRPRPWGDPRP | -0.142
119 | RRIRCRPPRLPRPRPRPWGWPRP | 0.221
120 | RRIRCRPPRLPRPRPRPWHEPRP | -0.0591
121 | RRIRCRPPRLPRPRPRPWLEPRP | 0.117
122 | RRIRCRPPRLPRPRPRPWMNPRP | 0.0105
123 | RRIRCRPPRLPRPRPRPWNSPRP | -0.529
124 | RRIRCRPPRLPRPRPRPWQHPRP | -0.256
125 | RRIRCRPPRLPRPRPRPWRKPRP | 0.119

Row | Sequence | shrunken log2 fold change
126 | RRIRCRPPRLPRPRPRPWRPPRP | 0.0893
127 | RRIRCRPPRLPRPRPRPWSGPRP | -0.0937
128 | RRIRCRPPRLPRPRPRPWSHPRP | -0.0223
129 | RRIRCRPPRLPRPRPRPWSLPRP | -1.5
130 | RRIRCRPPRLPRPRPRPWSTPRP | -0.148
131 | RRIRCRPPRLPRPRPRPWTDPRP | -0.055
132 | RRIRCRPPRLPRPRPRPWTKPRP | -0.402
133 | RRIRCRPPRLPRPRPRPWTMPRP | 0.0153
134 | RRIRCRPPRLPRPRPRPWWPPRP | 0.0266
135 | RRIRCRPPRLPRPRPRPWYKPRP | -1.01
136 | RRIRCRPPRLPRPRPRPYEYPRP | -0.769
137 | RRIRCRPPRLPRPRPRPYFEPRP | -0.572
138 | RRIRCRPPRLPRPRPRPYFQPRP | -0.846
139 | RRIRCRPPRLPRPRPRPYGAPRP | -0.569
140 | RRIRCRPPRLPRPRPRPYHAPRP | -0.585
141 | RRIRCRPPRLPRPRPRPYIFPRP | -0.773
142 | RRIRCRPPRLPRPRPRPYIVPRP | -0.168
143 | RRIRCRPPRLPRPRPRPYLKPRP | -1.1
144 | RRIRCRPPRLPRPRPRPYMDPRP | 0.0215
145 | RRIRCRPPRLPRPRPRPYMYPRP | -0.912
146 | RRIRCRPPRLPRPRPRPYPSPRP | -0.0149
147 | RRIRCRPPRLPRPRPRPYQGPRP | 0.0299
148 | RRIRCRPPRLPRPRPRPYSFPRP | -0.414
149 | RRIRCRPPRLPRPRPRPYSGPRP | -0.566
150 | RRIRCRPPRLPRPRPRPYSNPRP | -0.655
